From US20120172293A1 (Takeda / Millennium, published 2012)
Non-standard residues stand in square brackets, D forms with d. No end group written: not given here. Dap(CONH2) = NC(=O)NC[C@H](N)C(=O)O; 3Pal = N[C@@H](Cc1cccnc1)C(=O)O; 4Pal = N[C@@H](Cc1ccncc1)C(=O)O; Cha = N[C@@H](CC1CCCCC1)C(=O)O; Cit = NC(=O)NCCC[C@H](N)C(=O)O; d(αMeP) = C[C@]1(C(=O)O)CCCN1; αMeP = C[C@@]1(C(=O)O)CCCN1; NMeS = CN[C@@H](CO)C(=O)O; hSer = N[C@@H](CCO)C(=O)O; NMeA = CN[C@@H](C)C(=O)O; Nle = CCCC[C@H](N)C(=O)O; Orn = NCCC[C@H](N)C(=O)O; dNMeA = CN[C@H](C)C(=O)O; dAze = O=C(O)[C@H]1CCN1; Aib = CC(C)(N)C(=O)O; GABA = NCCCC(=O)O

B1: Ac-[D-Pro24, Orn26, Cha27,28,36, Aib31]-PYY(23-36) (peptide)
peptide: Ac-S[dP]R[Orn][Cha][Cha]NL[Aib]TRQR[Cha]-NH2
SMILES: CC(=O)N[C@@H](CO)C(=O)N1CCC[C@@H]1C(=O)N[C@@H](CCCNC(=N)N)C(=O)N[C@@H](CCCN)C(=O)N[C@@H](CC1CCCCC1)C(=O)N[C@@H](CC1CCCCC1)C(=O)N[C@@H](CC(N)=O)C(=O)N[C@@H](CC(C)C)C(=O)NC(C)(C)C(=O)N[C@H](C(=O)N[C@@H](CCCNC(=N)N)C(=O)N[C@@H](CCC(N)=O)C(=O)N[C@@H](CCCNC(=N)N)C(=O)N[C@@H](CC1CCCCC1)C(N)=O)[C@@H](C)O
B2: [MeAla22, D-Pro24, Cha27,28,36, Aib31]-PYY(22-36) (peptide)
peptide: [NMeA]S[dP]RH[Cha][Cha]NL[Aib]TRQR[Cha]-NH2
modifications: N-terminus assumed
SMILES: CN[C@@H](C)C(=O)N[C@@H](CO)C(=O)N1CCC[C@@H]1C(=O)N[C@@H](CCCNC(=N)N)C(=O)N[C@@H](Cc1c[nH]cn1)C(=O)N[C@@H](CC1CCCCC1)C(=O)N[C@@H](CC1CCCCC1)C(=O)N[C@@H](CC(N)=O)C(=O)N[C@@H](CC(C)C)C(=O)NC(C)(C)C(=O)N[C@H](C(=O)N[C@@H](CCCNC(=N)N)C(=O)N[C@@H](CCC(N)=O)C(=O)N[C@@H](CCCNC(=N)N)C(=O)N[C@@H](CC1CCCCC1)C(N)=O)[C@@H](C)O
B3: Ac-[GABA24, Cha27,28,36, Aib31]-PYY(23-36) (peptide)
peptide: Ac-S[GABA]RH[Cha][Cha]NL[Aib]TRQR[Cha]-NH2
SMILES: CC(=O)N[C@@H](CO)C(=O)NCCCC(=O)N[C@@H](CCCNC(=N)N)C(=O)N[C@@H](Cc1c[nH]cn1)C(=O)N[C@@H](CC1CCCCC1)C(=O)N[C@@H](CC1CCCCC1)C(=O)N[C@@H](CC(N)=O)C(=O)N[C@@H](CC(C)C)C(=O)NC(C)(C)C(=O)N[C@H](C(=O)N[C@@H](CCCNC(=N)N)C(=O)N[C@@H](CCC(N)=O)C(=O)N[C@@H](CCCNC(=N)N)C(=O)N[C@@H](CC1CCCCC1)C(N)=O)[C@@H](C)O
B4: Ac-[D-Aze(2)24, Cha27,28,36, Aib31]-PYY(23-36) (peptide)
peptide: Ac-S[dAze]RH[Cha][Cha]NL[Aib]TRQR[Cha]-NH2
SMILES: CC(=O)N[C@@H](CO)C(=O)N1CC[C@@H]1C(=O)N[C@@H](CCCNC(=N)N)C(=O)N[C@@H](Cc1c[nH]cn1)C(=O)N[C@@H](CC1CCCCC1)C(=O)N[C@@H](CC1CCCCC1)C(=O)N[C@@H](CC(N)=O)C(=O)N[C@@H](CC(C)C)C(=O)NC(C)(C)C(=O)N[C@H](C(=O)N[C@@H](CCCNC(=N)N)C(=O)N[C@@H](CCC(N)=O)C(=O)N[C@@H](CCCNC(=N)N)C(=O)N[C@@H](CC1CCCCC1)C(N)=O)[C@@H](C)O
B5: Ac-[D-MeAla22, D-Pro24, Cha27,28,36, Aib31]-PYY(22-36) (peptide)
peptide: Ac-[dNMeA]S[dP]RH[Cha][Cha]NL[Aib]TRQR[Cha]-NH2
SMILES: CC(=O)N(C)[C@H](C)C(=O)N[C@@H](CO)C(=O)N1CCC[C@@H]1C(=O)N[C@@H](CCCNC(=N)N)C(=O)N[C@@H](Cc1c[nH]cn1)C(=O)N[C@@H](CC1CCCCC1)C(=O)N[C@@H](CC1CCCCC1)C(=O)N[C@@H](CC(N)=O)C(=O)N[C@@H](CC(C)C)C(=O)NC(C)(C)C(=O)N[C@H](C(=O)N[C@@H](CCCNC(=N)N)C(=O)N[C@@H](CCC(N)=O)C(=O)N[C@@H](CCCNC(=N)N)C(=O)N[C@@H](CC1CCCCC1)C(N)=O)[C@@H](C)O
B6: Ac-[D-Pro24, Pya(3)26, Cha27,28,36, Aib31]-PYY(23-36) (peptide)
peptide: Ac-S[dP]R[3Pal][Cha][Cha]NL[Aib]TRQR[Cha]-NH2
SMILES: CC(=O)N[C@@H](CO)C(=O)N1CCC[C@@H]1C(=O)N[C@@H](CCCNC(=N)N)C(=O)N[C@@H](Cc1cccnc1)C(=O)N[C@@H](CC1CCCCC1)C(=O)N[C@@H](CC1CCCCC1)C(=O)N[C@@H](CC(N)=O)C(=O)N[C@@H](CC(C)C)C(=O)NC(C)(C)C(=O)N[C@H](C(=O)N[C@@H](CCCNC(=N)N)C(=O)N[C@@H](CCC(N)=O)C(=O)N[C@@H](CCCNC(=N)N)C(=O)N[C@@H](CC1CCCCC1)C(N)=O)[C@@H](C)O
B7: Ac-[D-Pro24, Nle25, Pya(4)26, Cha27,28,36, Aib31]-PYY(23-36) (peptide)
peptide: Ac-S[dP][Nle][4Pal][Cha][Cha]NL[Aib]TRQR[Cha]-NH2
SMILES: CCCC[C@H](NC(=O)[C@H]1CCCN1C(=O)[C@H](CO)NC(C)=O)C(=O)N[C@@H](Cc1ccncc1)C(=O)N[C@@H](CC1CCCCC1)C(=O)N[C@@H](CC1CCCCC1)C(=O)N[C@@H](CC(N)=O)C(=O)N[C@@H](CC(C)C)C(=O)NC(C)(C)C(=O)N[C@H](C(=O)N[C@@H](CCCNC(=N)N)C(=O)N[C@@H](CCC(N)=O)C(=O)N[C@@H](CCCNC(=N)N)C(=O)N[C@@H](CC1CCCCC1)C(N)=O)[C@@H](C)O
B8: Ac-[Glu23, D-Pro24, Pya(4)26, Cha27,28,36, Aib31]-PYY(23-36) (peptide)
peptide: Ac-E[dP]R[4Pal][Cha][Cha]NL[Aib]TRQR[Cha]-NH2
SMILES: CC(=O)N[C@@H](CCC(=O)O)C(=O)N1CCC[C@@H]1C(=O)N[C@@H](CCCNC(=N)N)C(=O)N[C@@H](Cc1ccncc1)C(=O)N[C@@H](CC1CCCCC1)C(=O)N[C@@H](CC1CCCCC1)C(=O)N[C@@H](CC(N)=O)C(=O)N[C@@H](CC(C)C)C(=O)NC(C)(C)C(=O)N[C@H](C(=O)N[C@@H](CCCNC(=N)N)C(=O)N[C@@H](CCC(N)=O)C(=O)N[C@@H](CCCNC(=N)N)C(=O)N[C@@H](CC1CCCCC1)C(N)=O)[C@@H](C)O
B9: Ac-[D-Pro24, Cit26, Cha27,28,36, Aib31]-PYY(23-36) (peptide)
peptide: Ac-S[dP]R[Cit][Cha][Cha]NL[Aib]TRQR[Cha]-NH2
SMILES: CC(=O)N[C@@H](CO)C(=O)N1CCC[C@@H]1C(=O)N[C@@H](CCCNC(=N)N)C(=O)N[C@@H](CCCNC(N)=O)C(=O)N[C@@H](CC1CCCCC1)C(=O)N[C@@H](CC1CCCCC1)C(=O)N[C@@H](CC(N)=O)C(=O)N[C@@H](CC(C)C)C(=O)NC(C)(C)C(=O)N[C@H](C(=O)N[C@@H](CCCNC(=N)N)C(=O)N[C@@H](CCC(N)=O)C(=O)N[C@@H](CCCNC(=N)N)C(=O)N[C@@H](CC1CCCCC1)C(N)=O)[C@@H](C)O
B10: Ac-[MeSer23, D-Pro24, Cha27,28,36, Aib31]-PYY(22-36) (peptide)
peptide: Ac-A[NMeS][dP]RH[Cha][Cha]NL[Aib]TRQR[Cha]-NH2
SMILES: CC(=O)N[C@@H](C)C(=O)N(C)[C@@H](CO)C(=O)N1CCC[C@@H]1C(=O)N[C@@H](CCCNC(=N)N)C(=O)N[C@@H](Cc1c[nH]cn1)C(=O)N[C@@H](CC1CCCCC1)C(=O)N[C@@H](CC1CCCCC1)C(=O)N[C@@H](CC(N)=O)C(=O)N[C@@H](CC(C)C)C(=O)NC(C)(C)C(=O)N[C@H](C(=O)N[C@@H](CCCNC(=N)N)C(=O)N[C@@H](CCC(N)=O)C(=O)N[C@@H](CCCNC(=N)N)C(=O)N[C@@H](CC1CCCCC1)C(N)=O)[C@@H](C)O
B11: Ac-[D-αMePro24, Cha27,28,36, Aib31]-PYY(23-36) (peptide)
peptide: Ac-S[d(αMeP)]RH[Cha][Cha]NL[Aib]TRQR[Cha]-NH2
SMILES: CC(=O)N[C@@H](CO)C(=O)N1CCC[C@]1(C)C(=O)N[C@@H](CCCNC(=N)N)C(=O)N[C@@H](Cc1c[nH]cn1)C(=O)N[C@@H](CC1CCCCC1)C(=O)N[C@@H](CC1CCCCC1)C(=O)N[C@@H](CC(N)=O)C(=O)N[C@@H](CC(C)C)C(=O)NC(C)(C)C(=O)N[C@H](C(=O)N[C@@H](CCCNC(=N)N)C(=O)N[C@@H](CCC(N)=O)C(=O)N[C@@H](CCCNC(=N)N)C(=O)N[C@@H](CC1CCCCC1)C(N)=O)[C@@H](C)O
B12: Ac-[D-Pro24, Alb26, Cha27,28,36, Aib31]-PYY(23-36) (peptide)
peptide: Ac-S[dP]R[Dap(CONH2)][Cha][Cha]NL[Aib]TRQR[Cha]-NH2
SMILES: CC(=O)N[C@@H](CO)C(=O)N1CCC[C@@H]1C(=O)N[C@@H](CCCNC(=N)N)C(=O)N[C@@H](CNC(N)=O)C(=O)N[C@@H](CC1CCCCC1)C(=O)N[C@@H](CC1CCCCC1)C(=O)N[C@@H](CC(N)=O)C(=O)N[C@@H](CC(C)C)C(=O)NC(C)(C)C(=O)N[C@H](C(=O)N[C@@H](CCCNC(=N)N)C(=O)N[C@@H](CCC(N)=O)C(=O)N[C@@H](CCCNC(=N)N)C(=O)N[C@@H](CC1CCCCC1)C(N)=O)[C@@H](C)O
B13: Ac-[αMePro24, Cha27,28,36, Aib31]-PYY(23-36) (peptide)
peptide: Ac-S[αMeP]RH[Cha][Cha]NL[Aib]TRQR[Cha]-NH2
SMILES: CC(=O)N[C@@H](CO)C(=O)N1CCC[C@@]1(C)C(=O)N[C@@H](CCCNC(=N)N)C(=O)N[C@@H](Cc1c[nH]cn1)C(=O)N[C@@H](CC1CCCCC1)C(=O)N[C@@H](CC1CCCCC1)C(=O)N[C@@H](CC(N)=O)C(=O)N[C@@H](CC(C)C)C(=O)NC(C)(C)C(=O)N[C@H](C(=O)N[C@@H](CCCNC(=N)N)C(=O)N[C@@H](CCC(N)=O)C(=O)N[C@@H](CCCNC(=N)N)C(=O)N[C@@H](CC1CCCCC1)C(N)=O)[C@@H](C)O
B14: Ac-[D-Pro24, Hse26, Cha27,36, Aib28,31]-PYY(23-36) (peptide)
peptide: Ac-S[dP]R[hSer][Cha][Aib]NL[Aib]TRQR[Cha]-NH2
SMILES: CC(=O)N[C@@H](CO)C(=O)N1CCC[C@@H]1C(=O)N[C@@H](CCCNC(=N)N)C(=O)N[C@@H](CCO)C(=O)N[C@@H](CC1CCCCC1)C(=O)NC(C)(C)C(=O)N[C@@H](CC(N)=O)C(=O)N[C@@H](CC(C)C)C(=O)NC(C)(C)C(=O)N[C@H](C(=O)N[C@@H](CCCNC(=N)N)C(=O)N[C@@H](CCC(N)=O)C(=O)N[C@@H](CCCNC(=N)N)C(=O)N[C@@H](CC1CCCCC1)C(N)=O)[C@@H](C)O

How the values were obtained:
[1] = target: human Y2 receptor (human) (UniProt P49146); assay: RBA: [125I]-PYY displacement, hY2R/CHO membranes
[2] = target: human Y2 receptor (human) (UniProt P49146); assay: cell-based or functional assay

Chain of human Y2 receptor (human) (P49146 whole entry): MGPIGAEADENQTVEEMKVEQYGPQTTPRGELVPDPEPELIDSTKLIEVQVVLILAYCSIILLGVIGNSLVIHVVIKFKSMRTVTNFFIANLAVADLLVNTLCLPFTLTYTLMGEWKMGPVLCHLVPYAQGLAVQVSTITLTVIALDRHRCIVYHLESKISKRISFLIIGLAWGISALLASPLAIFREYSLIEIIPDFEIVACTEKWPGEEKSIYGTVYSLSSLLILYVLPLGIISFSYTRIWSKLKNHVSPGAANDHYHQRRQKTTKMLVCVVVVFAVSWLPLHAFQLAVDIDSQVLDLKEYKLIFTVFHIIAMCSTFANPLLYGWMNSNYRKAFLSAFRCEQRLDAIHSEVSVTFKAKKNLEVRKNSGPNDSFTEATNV

Row | Binder | IC50 Ratio (vs PYY(3-36)) [1] | GBA EC50 Ratio (vs PYY(3-36)), [35S]GTPγS [2]
1 | B1 | 4.2 | 2.2
2 | B2 | 0.6 | 0.72
3 | B3 | 5.8 | 3
4 | B4 | 1.7 | 1.3
5 | B5 | 3.5 | 6.1
6 | B6 | 3.3 | 1.2
7 | B7 | 20 | 2.6
8 | B8 | 4.6 | 1.3
9 | B9 | 5.5 | 1.7
10 | B10 | 12 | 7.8
11 | B11 | 4.5 | 2.6
12 | B12 | 12 | 2.2
13 | B13 | 2.8 | 1.3
14 | B14 | 11 | 5.4
